Source: the supplement of paper PMC10126150
± gives the standard deviation of the averaged measurements.

Test system: ATP
Assay: switch fluorescence ratio, 500 uM ATP over buffer (Cy3 cluster intensity, sum of 5 cycles each) (fold (ratio)); higher = stronger signal-on switching upon ATP binding; sequences stand for … in TCGTCGGCAGCGTCAGATGTGTATAAGAGACAGTTTTTTTTTTTTTTTTTTTTTTTTT…TC
Conditions: aptamer strand: ATP DNA aptamer (quencher-CACCTGGGGGAGTATTGCGGAGGAAGG + anchor), 100 nM annealed; ATP concentration: 500 uM
Method in brief: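 For every switch-domain sequence, the fluorescence ratio is the mean of per-cluster values, each being summed target-cycle Cy3 intensity over summed buffer-cycle Cy3 intensity. Clusters outside 100-1000 RFU were excluded. On a modified Illumina MiSeq flow-cell, the Cy3-labelled switching-strand clusters were annealed to 100 nM quencher-labelled ATP aptamer, imaged in selection buffer and then after 15 min with 500 uM ATP at 22 °C. Five such cycles were run, with NaOH stripping and re-annealing between them.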
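Further: ATP exposure 15 min at 22 °C before imaging.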

| Sequence | switch fluorescence ratio |
| --- | --- |
| TTTTCACGTT | 1.07 ± 0.095 |
| GCCGACGGTG | 1 ± 0.019 |
| TAAAAGTTGG | 0.985 ± 0.029 |
| CTGAGTTTGG | 1.07 ± 0.061 |
| GGTGGGGAAC | 1.03 ± 0.068 |
| TTCTATTTTT | 1.03 ± 0.024 |
| TCCGGGAGGG | 1.02 ± 0.053 |
| GGGTACGGAT | 1.04 ± 0.016 |
| TCTTGGTCGG | 1.026 ± 0.0041 |
| GAATAAAGAG | 0.966 ± 0.034 |
| TGCACATGGG | 1.02 ± 0.015 |
| GTGATTAGGG | 0.968 ± 0.022 |
| CGTCGACGGG | 1.02 ± 0.054 |
| CAGTATTTTG | 0.9952 ± 0.0031 |
| ATGGTAGCCG | 0.981 ± 0.012 |
| TGCAGCTTGT | 1.0186 ± 0.00048 |
| GGCACGGAGG | 0.989 ± 0.019 |
| CGGGGTTAGC | 1.01 ± 0.014 |
| TACTTTTTAG | 1.02 ± 0.029 |
| TTTCGGGTTG | 1.02 ± 0.042 |
| TTAAAGCTTT | 1.09 ± 0.22 |
| AATTATGGTG | 1.01 ± 0.012 |
| TGACGGGAGG | 0.991 ± 0.04 |

| Sequence | switch fluorescence ratio |
| --- | --- |
| TTAATAAATT | 1.03 ± 0.018 |
| CGAGTATTGG | 0.974 ± 0.018 |
| GGTTGGCGGG | 1.07 ± 0.021 |
| AGAAGGGTTG | 1 ± 0.023 |
| GCAATCAATA | 1.02 ± 0.015 |
| GAGGCAAGGT | 1.65 ± 0.092 |
| TGTCTGCAGC | 1.022 ± 0.0085 |
| TTCCTTCTTT | 1.08 ± 0.061 |
| CATTTTTTT | 0.99009 ± 0.00046 |
| AGGGGTCGGC | 0.986 ± 0.016 |
| TTACGGGCGT | 0.99 ± 0.013 |
| CCAGTGGCGA | 1.16 ± 0.039 |
| TTCGGGGGGT | 1.02 ± 0.051 |
| CTAGTCGTAC | 1.03 ± 0.068 |
| GCAGAGTGGA | 0.9976 ± 0.003 |
| ATTGTTTTGT | 0.987 ± 0.051 |
| GACCATTTAA | 1.023 ± 0.0027 |
| GCTTGATTAG | 0.9963 ± 0.0018 |
| CTGGGACTTG | 1 ± 0.013 |
| TGGAATGGGT | 0.987 ± 0.032 |
| TGAGGGCGTG | 1.01 ± 0.014 |
| TCTTTTCGAA | 1.01 ± 0.033 |
| GCCTATGAGG | 0.993 ± 0.038 |

| Sequence | switch fluorescence ratio |
| --- | --- |
| CTATTAAGTA | 0.9802 ± 0.0064 |
| AGGAAGGGTG | 1.04 ± 0.022 |
| CCCCTTGTGA | 1.72 ± 0.04 |
| TGTGTGTTTT | 1.01 ± 0.027 |
| AAGAGGGGAG | 1.01 ± 0.013 |
| GGATGCGCCT | 1.06 ± 0.15 |
| TCTGTTTTGG | 1 ± 0.038 |
| AGTAGAGTGT | 0.995 ± 0.04 |
| GCATTAGCTT | 1.007 ± 0.01 |
| TATGTCCCGT | 0.974 ± 0.029 |
| TTTGCACTGT | 0.998 ± 0.055 |
| TTTTACCACC | 1.22 ± 0.049 |
| TTATCAACAC | 1.09 ± 0.13 |
| CTAAAGGAAG | 1.01 ± 0.029 |
| ATAGTTGTGA | 0.987 ± 0.024 |
| CGCTGGGGTT | 0.9962 ± 0.0047 |
| TAAATAGGGC | 1.02 ± 0.045 |
| CTCGTCCGAC | 1.53 ± 0.11 |
| TGATTGGTCA | 0.967 ± 0.012 |
| TAAGTTGAGT | 1.01 ± 0.0093 |
| TTCAGACTAT | 1.01 ± 0.027 |
| TTCCTAATT | 1.03 ± 0.033 |
| AAGAGGGACT | 1.03 ± 0.021 |

| Sequence | switch fluorescence ratio |
| --- | --- |
| GGAACAAGGT | 0.988 ± 0.059 |
| TGGTGAAATG | 1 ± 0.013 |
| CAGAGTGTGA | 1.005 ± 0.0086 |
| CTGGAGGTTG | 0.998 ± 0.041 |
| ACTCGGCCGG | 1.001 ± 0.009 |
| ACTAGATTGA | 1.01 ± 0.028 |
| TTTTAGCAAC | 1.2325 ± 0.0007 |
| TTATTTCGCG | 0.986 ± 0.041 |
| TTGCCCGAA | 1.01 ± 0.043 |
| TTTTGGCCAG | 0.991 ± 0.061 |
| ATGGAGTTTG | 0.9901 ± 0.0057 |
| TTTTTTTACA | 0.998 ± 0.01 |
| CAAGTTTGGG | 0.982 ± 0.019 |
| TATGATTGCG | 1.01 ± 0.04 |
| CTATGCGGGA | 1.01 ± 0.04 |
| GGGGGGATAC | 1.7 ± 0.61 |
| TTTGGGGGTG | 1.02 ± 0.038 |
| GGGGGGATCG | 0.9791 ± 0.008 |
| GTTATAGGTG | 1.06 ± 0.065 |
| TACGTTTTTT | 1.05 ± 0.07 |
| AAAAAAAAGA | 0.996 ± 0.048 |
| CTGATTATCT | 0.989 ± 0.02 |
| GTGGAAGTTG | 0.949 ± 0.041 |

| Sequence | switch fluorescence ratio |
| --- | --- |
| ATTGCGGGTT | 0.981 ± 0.013 |
| GGTCCAGGAT | 1.018 ± 0.0068 |
| TCATATGTTG | 1.018 ± 0.0036 |
| TAAGCGGCGG | 1 ± 0.036 |
| CGGGTAGCTT | 1.017 ± 0.0093 |
| AATCATGGGG | 0.993 ± 0.041 |
| AGGGTAGTCC | 0.986 ± 0.03 |
| ACTTGCCGTA | 0.992 ± 0.071 |
| CGTAACTTAC | 1.6 ± 0.097 |
| ATACGGTAAT | 1.16 ± 0.052 |
| TGTCGGGGGG | 1.01 ± 0.028 |
| TGATTAAGCA | 0.999 ± 0.033 |
| ATGGGTTGGG | 0.991 ± 0.017 |
| AGATATTGGC | 1.03 ± 0.11 |
| TTTGTAGCTG | 1.4 ± 0.046 |
| AGGGAGATAG | 0.986 ± 0.016 |
| GGGACGATTT | 0.995 ± 0.017 |
| CCTGTAATGT | 1.12 ± 0.042 |
| GGGACCTTGT | 1.01 ± 0.064 |
| CTATACCGTT | 1.003 ± 0.0048 |
| GGGGTCGGGT | 0.99 ± 0.012 |
| CTGGCGTATG | 0.997 ± 0.036 |
| ATGAACTCAG | 1.03 ± 0.037 |

| Sequence | switch fluorescence ratio |
| --- | --- |
| GAGAAAGGTT | 1.09 ± 0.2 |
| ATGATATTGA | 0.99 ± 0.011 |
| GAGCGATGTC | 1.07 ± 0.035 |
| TATAAGTGGT | 0.992 ± 0.023 |
| CGGGGTCTGG | 0.978 ± 0.015 |
| GGGCGGATGG | 0.986 ± 0.018 |
| CTGTAGCTGG | 1.53 ± 0.05 |
| GCGATGCCTC | 1.09 ± 0.043 |
| CGGGGGTTAC | 1.4 ± 0.56 |
| AGGCGTAAAA | 0.985 ± 0.019 |
| ATAGTGGGTC | 1.04 ± 0.025 |
| GGGCCCTTAC | 1.11 ± 0.06 |
| TGGTATTTTT | 0.991 ± 0.029 |
| TGGAGTAGGA | 1.04 ± 0.051 |
| ATGAAAGCGT | 1.032 ± 0.01 |
| CGGGAAGTTC | 1.03 ± 0.016 |
| TACCTAGTTA | 1.03 ± 0.029 |
| CTGGGTAGGG | 1.008 ± 0.01 |
| TCATTGTTGG | 1 ± 0.023 |
| TCCCGAAGAT | 1.03 ± 0.023 |
| GAAGAAAATT | 1.01 ± 0.014 |
| TAGCCTGTTG | 0.9667 ± 0.002 |
| ATTGTTGTTA | 0.98517 ± 0.00068 |

| Sequence | switch fluorescence ratio |
| --- | --- |
| ACTTTAATTG | 1.002 ± 0.0014 |
| ACGTAGTGGC | 1.04 ± 0.02 |
| GGGTAAGGGG | 1.05 ± 0.098 |
| GGTGTGGTGC | 1.02 ± 0.012 |
| AAATCACGTA | 1.1818 ± 4.2e-05 |
| CCGGAGAGGT | 2.28 ± 0.23 |
| GGAATTAGGT | 0.9903 ± 0.0077 |
| GAGTGACCGA | 1.01 ± 0.02 |
| AAATTTGGTG | 1.14 ± 0.14 |
| TTTGGTGGAT | 0.9794 ± 0.0058 |
| CCAGGGTGGG | 1.03 ± 0.12 |
| TTGGGTAAAT | 0.985 ± 0.031 |
| TTTTCGGCTG | 0.943 ± 0.11 |
| TTAGTGGCTA | 1.019 ± 0.0087 |
| CGGCGGCACC | 1.0893 ± 0.00071 |
| ATACACATAG | 1.04 ± 0.014 |
| CAGATGTGGC | 0.927 ± 0.037 |
| AGACCGCAGT | 1.137 ± 0.0071 |
| GTTCGCATTG | 1.08 ± 0.024 |
